The supplement of paper PMC10126150
± gives the standard deviation of the averaged measurements.

Tested on: ATP
Assay: switch fluorescence ratio, 500 uM ATP over buffer (Cy3 cluster intensity, sum of 5 cycles each) (fold (ratio)); higher = stronger signal-on switching upon ATP binding; sequences stand for … in TCGTCGGCAGCGTCAGATGTGTATAAGAGACAGTTTTTTTTTTTTTTTTTTTTTTTTT…TC
Details: aptamer strand: ATP DNA aptamer (quencher-CACCTGGGGGAGTATTGCGGAGGAAGG + anchor), 100 nM annealed; ATP concentration: 500 uM
Summary of the method: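 Clusters carrying Cy3-labelled switching strands on a modified Illumina MiSeq flow-cell were annealed to 100 nM quencher-labelled ATP aptamer and imaged in selection buffer. They were imaged again after 15 min with 500 uM ATP at 22 °C, over five buffer/ATP cycles with NaOH stripping and re-annealing in between. For each cluster, the fluorescence ratio is the summed Cy3 intensity of the target cycles divided by that of the buffer cycles, averaged per switch-domain sequence. Clusters outside 100-1000 RFU were left out.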
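Also: ATP exposure 15 min at 22 °C before imaging.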

## TTCGAGGGGG
  switch fluorescence ratio: 1.01 ± 0.031

## TACTTAAAAC
  switch fluorescence ratio: 1.011 ± 0.0078

## TTATATCTAC
  switch fluorescence ratio: 1.004 ± 0.0045

## TGTTTGAAAT
  switch fluorescence ratio: 0.998 ± 0.034

## CATGGTGCCC
  switch fluorescence ratio: 1.03 ± 0.026

## TAAAGTTACG
  switch fluorescence ratio: 1.06 ± 0.032

## ATTATAGGGT
  switch fluorescence ratio: 1.03 ± 0.026

## GAGCTATGGG
  switch fluorescence ratio: 0.983 ± 0.043

## AAGCGAGGGC
  switch fluorescence ratio: 1.06 ± 0.035

## TCGGGGGAAG
  switch fluorescence ratio: 1.01 ± 0.038

## TTTAACTTAT
  switch fluorescence ratio: 1.03 ± 0.02

## GGCGGTGGCA
  switch fluorescence ratio: 1.01 ± 0.026

## GTGGGCCAGG
  switch fluorescence ratio: 1.06 ± 0.094

## GGAAGTTTTT
  switch fluorescence ratio: 0.9946 ± 0.0079

## TCGGGGCCTC
  switch fluorescence ratio: 1.04 ± 0.024

## CAACTTAGTC
  switch fluorescence ratio: 0.988 ± 0.068

## ATGGGATTGG
  switch fluorescence ratio: 0.962 ± 0.02

## TCCACCCTT
  switch fluorescence ratio: 1.03 ± 0.013

## AAAATTATTG
  switch fluorescence ratio: 1 ± 0.022

## TATCGGGGGT
  switch fluorescence ratio: 1.02 ± 0.039

## CCAGACATGA
  switch fluorescence ratio: 1.02 ± 0.012

## ATTGGTATAT
  switch fluorescence ratio: 1.007 ± 0.0068

## CTATGTGTGG
  switch fluorescence ratio: 0.976 ± 0.021

## CCAATGAGTC
  switch fluorescence ratio: 0.971 ± 0.013

## ATTTCGGTGG
  switch fluorescence ratio: 1.06 ± 0.044

## GGATGGGGAG
  switch fluorescence ratio: 0.971 ± 0.02

## AATTATCGGC
  switch fluorescence ratio: 0.998 ± 0.049

## GAGTCCAGGC
  switch fluorescence ratio: 1.07 ± 0.16

## CTGATGGCGT
  switch fluorescence ratio: 1 ± 0.0068

## AGCGAGGTCG
  switch fluorescence ratio: 1 ± 0.031

## ATACCATCGG
  switch fluorescence ratio: 0.981 ± 0.024

## AATTGTTGTC
  switch fluorescence ratio: 0.985 ± 0.01

## AATAAGGCAT
  switch fluorescence ratio: 1.01 ± 0.024

## GCAGGGGGTT
  switch fluorescence ratio: 1 ± 0.028

## GAGCGCGATT
  switch fluorescence ratio: 1.03 ± 0.036

## AATATGGCGT
  switch fluorescence ratio: 1.01 ± 0.029

## TTTTCATACT
  switch fluorescence ratio: 1.07 ± 0.046

## CGGCATGTCT
  switch fluorescence ratio: 0.997 ± 0.076

## CATCTATGGT
  switch fluorescence ratio: 0.992 ± 0.01

## GTGTCATGGA
  switch fluorescence ratio: 1 ± 0.029

## CAGGTGTGGA
  switch fluorescence ratio: 1.044 ± 0.0053

## AGGGGAGGTA
  switch fluorescence ratio: 0.965 ± 0.021

## CTGAATGCAG
  switch fluorescence ratio: 1.069 ± 0.0077

## CAGGGGGCCA
  switch fluorescence ratio: 0.984 ± 0.033

## ACCATACTGT
  switch fluorescence ratio: 1.33 ± 0.055

## GCTTCAGGG
  switch fluorescence ratio: 1 ± 0.019

## ATTTAATTGT
  switch fluorescence ratio: 0.986 ± 0.053

## TTTGATACTC
  switch fluorescence ratio: 1.15 ± 0.091

## AGTGGAGGT
  switch fluorescence ratio: 0.97 ± 0.041

## TAGTGTATCG
  switch fluorescence ratio: 0.993 ± 0.045

## TTGGGTATTT
  switch fluorescence ratio: 0.986 ± 0.021

## GCGCCGTGGC
  switch fluorescence ratio: 0.99035 ± 0.00081

## TTAGGGGGGT
  switch fluorescence ratio: 1.05 ± 0.15

## CAGAGTCTGG
  switch fluorescence ratio: 1.04 ± 0.024

## CCGGGGAGGG
  switch fluorescence ratio: 1.08 ± 0.053

## GCTAACCATT
  switch fluorescence ratio: 1.1 ± 0.15

## GCGTAAAGGT
  switch fluorescence ratio: 1.014 ± 0.0064

## TACTGTACTC
  switch fluorescence ratio: 1.54 ± 0.035

## AGAGACAGGG
  switch fluorescence ratio: 1.05 ± 0.032

## GGGGACGATA
  switch fluorescence ratio: 1 ± 0.053

## CCAGCTGGAG
  switch fluorescence ratio: 0.997 ± 0.025

## TTCTTGGACG
  switch fluorescence ratio: 1.05 ± 0.16

## GTTGTTAGGT
  switch fluorescence ratio: 0.97 ± 0.022

## ATTGCTAGGG
  switch fluorescence ratio: 1.03 ± 0.023

## ATTTACATAT
  switch fluorescence ratio: 1.03 ± 0.015

## GTGGATTATC
  switch fluorescence ratio: 1.01 ± 0.036

## CCTCTTAACT
  switch fluorescence ratio: 1.13 ± 0.037

## GGGAGTGGCA
  switch fluorescence ratio: 1.08 ± 0.15

## CGTGTGGTAG
  switch fluorescence ratio: 0.992 ± 0.044

## ATGCGTATTT
  switch fluorescence ratio: 0.975 ± 0.039

## GCCACAGCTG
  switch fluorescence ratio: 1 ± 0.013

## TCATTCAAGG
  switch fluorescence ratio: 1.02 ± 0.013

## AATGTAGTTT
  switch fluorescence ratio: 0.993 ± 0.032

## GTAATAGTTG
  switch fluorescence ratio: 1.01 ± 0.022

## GGGGGGCAGC
  switch fluorescence ratio: 1 ± 0.017

## TAGGGGAGGA
  switch fluorescence ratio: 0.993 ± 0.035

## TTACAATTTC
  switch fluorescence ratio: 1.03 ± 0.056

## GACTAGACGG
  switch fluorescence ratio: 1.13 ± 0.041

## TTCATGAGTG
  switch fluorescence ratio: 0.9696 ± 0.0051

## TATTGTTTTG
  switch fluorescence ratio: 0.986 ± 0.033

## TGTTTGGGGA
  switch fluorescence ratio: 0.997 ± 0.018

## TTTTGGTTGT
  switch fluorescence ratio: 1.01 ± 0.029

## CCACCCACAT
  switch fluorescence ratio: 1.48 ± 0.065

## TTTTTTTGC
  switch fluorescence ratio: 1 ± 0.02

## TGGGGCTAAG
  switch fluorescence ratio: 1.01 ± 0.034

## GGGTTAGTAG
  switch fluorescence ratio: 1 ± 0.017

## TGATGTCGGG
  switch fluorescence ratio: 0.999 ± 0.034

## GATGCAAGTG
  switch fluorescence ratio: 1.07 ± 0.033

## GGTTCTGAGC
  switch fluorescence ratio: 0.986 ± 0.02

## ACTCAGGTCC
  switch fluorescence ratio: 1.077 ± 0.0054

## CAATAGCGGT
  switch fluorescence ratio: 1.05 ± 0.02

## GGACTGGGGA
  switch fluorescence ratio: 1.0045 ± 0.00084

## ATTAGTTATA
  switch fluorescence ratio: 0.975 ± 0.029

## GCCATCAGAG
  switch fluorescence ratio: 0.973 ± 0.0044

## TTCGCGCTTT
  switch fluorescence ratio: 1 ± 0.036

## GGGGGGGTCT
  switch fluorescence ratio: 0.973 ± 0.044

## TAGGGGTAGT
  switch fluorescence ratio: 1.01 ± 0.033

## TGAGTAATTT
  switch fluorescence ratio: 1.01 ± 0.037

## AGCAAATATA
  switch fluorescence ratio: 1.058 ± 0.0057

## GGTGCCGTGC
  switch fluorescence ratio: 0.995 ± 0.034

## AGGAGGGCTG
  switch fluorescence ratio: 0.984 ± 0.011

## GTTGTATGTA
  switch fluorescence ratio: 1 ± 0.049

## TGGGGAGCTT
  switch fluorescence ratio: 0.99 ± 0.023

## GATATTCGGG
  switch fluorescence ratio: 0.988 ± 0.017

## CGGGGGTCGG
  switch fluorescence ratio: 0.978 ± 0.012

## CAGGGGGTAC
  switch fluorescence ratio: 1.09 ± 0.086

## TTTAAGAGTA
  switch fluorescence ratio: 1 ± 0.067

## GGGGCTGTGG
  switch fluorescence ratio: 0.9933 ± 0.0087

## AAGTAGTGCG
  switch fluorescence ratio: 1.01 ± 0.041

## TGGTTTGGCC
  switch fluorescence ratio: 0.97 ± 0.018

## GTGGGGGCGC
  switch fluorescence ratio: 1.04 ± 0.022

## TGAACTTGGT
  switch fluorescence ratio: 0.929 ± 0.12

## TGATGGGTGC
  switch fluorescence ratio: 1.04 ± 0.045

## CCTTATTTCT
  switch fluorescence ratio: 1 ± 0.031

## AGGGGAGTTG
  switch fluorescence ratio: 0.995 ± 0.027

## GCTTTTGTGG
  switch fluorescence ratio: 0.986 ± 0.035

## TTCGGAGGGC
  switch fluorescence ratio: 0.996 ± 0.031

## CGTTAGGGAG
  switch fluorescence ratio: 0.95456 ± 0.00035

## AAGGGGTTTC
  switch fluorescence ratio: 0.9746 ± 0.0067

## TGATTGGGCT
  switch fluorescence ratio: 1.03 ± 0.015

## GATAACGGGG
  switch fluorescence ratio: 0.972 ± 0.02

## TAGCGAGCGC
  switch fluorescence ratio: 0.988 ± 0.068

## GCGGGGTAGT
  switch fluorescence ratio: 1.008 ± 0.0044

## TCATTGGCAT
  switch fluorescence ratio: 1.03 ± 0.037

## AGAGCTGGGG
  switch fluorescence ratio: 0.9849 ± 0.0079

## CAGGTAAGGA
  switch fluorescence ratio: 0.969 ± 0.01

## GTTACAAGCG
  switch fluorescence ratio: 0.994 ± 0.018

## CGGTAAATGG
  switch fluorescence ratio: 1.02 ± 0.04

## TTAATGAAGG
  switch fluorescence ratio: 1 ± 0.025

## ATATACTACA
  switch fluorescence ratio: 1.06 ± 0.022

## CGGTAAGGGG
  switch fluorescence ratio: 0.987 ± 0.01

## CTATCTCTTG
  switch fluorescence ratio: 1 ± 0.017

## CGGGAAGTGG
  switch fluorescence ratio: 0.996 ± 0.03

## AAGGAATGGT
  switch fluorescence ratio: 1.05 ± 0.041

## GAAGGGATTA
  switch fluorescence ratio: 1.01 ± 0.04

## GGGAGAAGGA
  switch fluorescence ratio: 1.05 ± 0.085

## AAAAAATCGT
  switch fluorescence ratio: 1.02 ± 0.057

## GAGCCGCCAG
  switch fluorescence ratio: 1.03 ± 0.045

## CTAGTCAATC
  switch fluorescence ratio: 1.7 ± 0.072

## TAGTGGGTCC
  switch fluorescence ratio: 1.02 ± 0.037

## GGCGGGGTGG
  switch fluorescence ratio: 1.09 ± 0.12

## ACGGGGGGGA
  switch fluorescence ratio: 1.03 ± 0.032

## CGTAATGAAG
  switch fluorescence ratio: 1.004 ± 0.0064

## AAGGATATGG
  switch fluorescence ratio: 1.02 ± 0.016

## TTCCGATGGA
  switch fluorescence ratio: 1.33 ± 0.26

## TTTCATACCT
  switch fluorescence ratio: 1.23 ± 0.14

## GAAACGAAGG
  switch fluorescence ratio: 0.9704 ± 0.0028

## AGGGGGGTTC
  switch fluorescence ratio: 0.994 ± 0.023

## ATGTTCGACA
  switch fluorescence ratio: 0.965 ± 0.027

## TATGTTGTCC
  switch fluorescence ratio: 0.977 ± 0.018

## TGGCCGGGTT
  switch fluorescence ratio: 1.33 ± 0.4

## AGTTTTGTTG
  switch fluorescence ratio: 0.989 ± 0.036

## CGGGAACCTT
  switch fluorescence ratio: 1.283 ± 0.01

## TCCAGGGTTA
  switch fluorescence ratio: 1.031 ± 0.0058

## ACGGGGTTTC
  switch fluorescence ratio: 1.01 ± 0.021

## TTGTTTTCCA
  switch fluorescence ratio: 0.987 ± 0.018

## GACAGTAGTC
  switch fluorescence ratio: 1.001 ± 0.0049
